The supplement of paper PMC9732359
± gives the uncertainty stated by the source.

Test: protein stability index of a GFP-peptide fusion (yeast GPS) (PSI 1-4); higher = more stable; sorted into four equal gates, so the index is relative within each strain
Outline: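 The protein stability index of a peptide was calculated by multiplying its read frequency in each gate by that gate's number and adding the products. The peptides were tiled 17-residue stretches of yeast proteins, fused downstream of GFP on a Cherry-expressing plasmid and carried in yeast as a pooled library. Mid-log cultures in leucine-free medium were sorted into four equal gates by GFP/Cherry ratio, and each gate's plasmids were PCR-amplified and Illumina-sequenced.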

Sequence | protein stability index (doa10∆) | protein stability index (pdr5∆) | protein stability index (san1∆) | protein stability index (ubr1∆)
HFSKDDYSPESKGFVEN [RPO21] | 2.88 ± 0.17 | 2.28 ± 0.17 | – | –
NDFANNLPKEGDIVLTR [CSL4] | 2.89 ± 0.15 | 3.32 ± 0.17 | 2.44 ± 0.12 | 2.97 ± 0.19
AQYEVLANYLTSALSEL [QCR2] | 1.94 ± 0.05 | 2.18 ± 0.04 | 1.99 ± 0.067 | 1.68 ± 0.044
TGVSVEAVDDVFQAKMM [RPN11] | 2.8 ± 0.14 | 3.06 ± 0.12 | 2.92 ± 0.082 | 2.87 ± 0.13
GANTSAAQTLLQMDYKD [PRE9] | 3 ± 0.061 | 3.13 ± 0.058 | 3.09 ± 0.048 | 2.96 ± 0.051
SWNESEDTLSGYDPIVS [PRP28] | 3.04 ± 0.12 | 3.14 ± 0.12 | 3.19 ± 0.076 | 3.44 ± 0.06
LLLRCDDRVDKKFVSQI [POP3] | 3.27 ± 0.11 | 3.34 ± 0.066 | 3.03 ± 0.054 | 3.22 ± 0.042
LIQKLQNSANNNSDDED [IRR1] | 2.98 ± 0.1 | 3.08 ± 0.074 | 3.26 ± 0.05 | 3.38 ± 0.083
MGNTKVHCRISCQIAQP [RRP45] | 1.64 ± 0.059 | 2.04 ± 0.079 | 1.56 ± 0.1 | 1.91 ± 0.056
TSQKMKKMVYVLDSMTK [SRP54] | 2.79 ± 0.11 | 3.12 ± 0.11 | 3.13 ± 0.21 | 2.96 ± 0.078
HILFQNNPDMMIQPPQQ [ROX3] | 2.94 ± 0.062 | 2.96 ± 0.07 | 3.06 ± 0.066 | 3.02 ± 0.046
VTRIINSSEIQSAIRPA [RPL4A] | 2.32 ± 0.083 | 2.54 ± 0.12 | 2.37 ± 0.07 | 2.26 ± 0.096
FIANEGVHTGQFIYAGK [RPL2A] | 2.98 ± 0.22 | 2.44 ± 0.17 | 2.04 ± 0.27 | –
DDLIAEENPIMQTALRR [QCR7] | – | 3.24 ± 0.22 | 2.92 ± 0.15 | 3.06 ± 0.13
SFYRVEKIKKINYHQYI [SSN2] | 1.18 ± 0.081 | 1.36 ± 0.06 | 1.39 ± 0.2 | 1.62 ± 0.1
LNKEKLGPLFKKIVDDT [IRR1] | 2.94 ± 0.099 | 3.12 ± 0.12 | 3.22 ± 0.23 | 2.94 ± 0.076
GQVAIKTLVYLEKCEAE [YCS4] | – | – | – | 2.92 ± 0.24
LRELDVELIESKINELS [SMC4] | 3.37 ± 0.096 | 3.47 ± 0.077 | 3.38 ± 0.073 | 3.35 ± 0.047
REKYNMKGPAALWDVQF [ARP9] | 3.49 ± 0.073 | 3.59 ± 0.08 | 3.49 ± 0.062 | 3.45 ± 0.064
LFSLLELGEQKCQELVT [RRP46] | 1.97 ± 0.061 | 1.8 ± 0.056 | 1.87 ± 0.093 | 2.1 ± 0.058
KIESEDDYILSGESVMD [SRB4] | 3.4 ± 0.17 | 3.5 ± 0.1 | 3.38 ± 0.15 | 2.96 ± 0.075
AFEELEGSWDRGIPRIS [PRP8] | 2.88 ± 0.18 | 3.36 ± 0.19 | 3.36 ± 0.22 | 3.3 ± 0.24
VNKYGLRADKLYEKLKQ [ISW2] | 1.52 ± 0.13 | 1.5 ± 0.11 | 1.6 ± 0.13 | 1.47 ± 0.15
MDEMDNVIRSLEQEYRL [RMP1] | 1.81 ± 0.064 | 1.21 ± 0.025 | 1.71 ± 0.15 | 2.05 ± 0.072
LICSIGLHSSEYKLRSL [ECM29] | 2.03 ± 0.046 | 2.41 ± 0.05 | 2.26 ± 0.07 | 2.56 ± 0.038
RKFALEKLYIFYKLNMP [SRP72] | 1.99 ± 0.046 | 1.79 ± 0.057 | 1.44 ± 0.085 | 1.29 ± 0.039
KLRRECSNPTCGAGVFL [RPS31] | 1.78 ± 0.048 | 2.44 ± 0.065 | 2.11 ± 0.07 | 1.86 ± 0.038
